Test results reported in patent US20210070829A1.

Target: FGFR/β-Klotho receptor complex
Assay: cell-based or functional assay

Question: With “Native FGF21 (from UniProt Q9NSA1 29-209) (ligand)” as the substance, how does the FGF21 activity EC50 (luciferase reporter) read?
Answer: Its FGF21 activity EC50 (luciferase reporter) is 0.12 nM.
